From ChEMBL document CHEMBL2073860, “A third human carnitine/organic cation transporter (OCTN3) as a candidate for the 5q31 Crohn's disease locus (IBD5)” (Biochem Biophys Res Commun, 2003) come the findings set out here.

The Km is the concentration of substrate that gives half-maximal velocity.

Substrate in the data set: C[N+](C)(C)CC(O)CC(=O)[O-]
The data set is described as follows: TP_TRANSPORTER: uptake in Octn3-HepG2 cells. The data set is classed as functional, cell-based.

B1: Solute carrier family 22 member 21 (Mus musculus), Q9WTN6 (protein)
chain: MLDYDEVTAFLGEWGTFQRLIFFLLSASIIPNGFTGLSAVFLTAIPEHRCRIPDTVNLSSAWRNHSIPMETKDGPEVPQKCRRYRLATIANFSELGLEPGRDVDLEQLEQENCLDGWEYDKDIFLSTIVTEWDLVCKDDWKAPLTTSFFYVGVLLGSFISGQLSDRFGRKNILFLTMAMHTGFSFIQVFSVNFEMFTLLYTLVGMGHISNYVAAFVLGTEMLSKSVRIIFATLGVCIFFAFGFMVLPLFAYFIREWRRLLLAITLPGVLCGALWWFIPESPRWLISQGRIKEAEVIIRKAAKINGIVAPSTIFDPSETNKLQDDSSKKPQSHHIYDLVRTPNIRILTIMSIILWLTISVGYFGLSLDTPNLNGNIYVNCFLLAAVEVPAYVLAWLLLQHVSRRYSMAGSLFLGGSVLLLVQLVPSDLHYLSTTLVMVGKFGITSAYSMVYVYTAELYPTVVRNMGVGVSSTASRLGSILSPYFVYLGAYDRRLPYILMGSLTILTAIITLFFPESSGVSLPETIDEMQKVKKLKQRQSLSKKGSPKESKGNVSRTSRTSEPKGF
As to B1, the Km came out at 20 µM.
